FireProtDB (doi:10.1016/s0167-4838(98)00243-x)
Several values for one entry are separate records, joined by “and”; a condition that tells them apart may be missing. Equal entries are not always repeated.

B1: Chitosanase, P33665 (parent)
chain: MHSQHRTARIALAVVLTAIPASLATAGVGYASTQASTAVKAGAGLDDPHKKEIAMELVSSAENSSLDWKAQYKYIEDIGDGRGYTGGIIGFCSGTGDMLELVQHYTDLEPGNILAKYLPALKKVNGSASHSGLGTPFTKDWATAAKDTVFQQAQNDERDRVYFDPAVSQAKADGLRALGQFAYYDAIVMHGPGNDPTSFGGIRKTAMKKARTPAQGGDETTYLNAFLDARKAAMLTEAAHDDTSRVDTEQRVFLKAGNLDLNPPLKWKTYGDPYVINS

Variants of: B1
Conditions: Streptomyces sp. (strain N174); pH 7; 42.7 °C; Thermal; CD; sodium phosphate 50 mM; transition: 3; reversible: yes(79%); structure 1CHK; whole UniProt chain shown

| Variant | ddG of mutation (higher = less stable) |
| --- | --- |
| MHSQHRTARIALAVVLTAIPASLATAGVGYASTQASTAVKAGAGLDDPHKKEIAMELVSSAENSSLDWKAQYKYIEDIGDGRGYTGGIIGFCSGTGDMLELVQHYTDLEPGNILAKYLPALKKVNGSASHSGLGTPFTKDFATAAKDTVFQQAQNDERDRVYFDPAVSQAKADGLRALGQFAYYDAIVMHGPGNDPTSFGGIRKTAMKKARTPAQGGDETTYLNAFLDARKAAMLTEAAHDDTSRVDTEQRVFLKAGNLDLNPPLKWKTYGDPYVINS [W141F] | 16.4 kJ/mol |

Same assay, conditions: Streptomyces sp. (strain N174); pH 7; 43.2 °C; Thermal; Fluorescence; sodium phosphate 50 mM; reversible: yes(77%); structure 1CHK; whole UniProt chain shown

| Variant | ddG of mutation (higher = less stable) |
| --- | --- |
| MHSQHRTARIALAVVLTAIPASLATAGVGYASTQASTAVKAGAGLDDPHKKEIAMELVSSAENSSLDWKAQYKYIEDIGDGRGYTGGIIGFCSGTGDMLELVQHYTDLEPGNILAKYLPALKKVNGSASHSGLGTPFTKDFATAAKDTVFQQAQNDERDRVYFDPAVSQAKADGLRALGQFAYYDAIVMHGPGNDPTSFGGIRKTAMKKARTPAQGGDETTYLNAFLDARKAAMLTEAAHDDTSRVDTEQRVFLKAGNLDLNPPLKWKTYGDPYVINS [W141F] | 17.9 kJ/mol |

Same assay, conditions: Streptomyces sp. (strain N174); pH 7; 52.2 °C; Thermal; CD; sodium phosphate 50 mM; transition: 3; reversible: yes(79%); structure 1CHK; whole UniProt chain shown

| Variant | ddG of mutation (higher = less stable) |
| --- | --- |
| MHSQHRTARIALAVVLTAIPASLATAGVGYASTQASTAVKAGAGLDDPHKKEIAMELVSSAENSSLDWKAQYKYIEDIGDGRGYTGGIIGFCSGTGDMLELVQHYTDLEPGNILAKYLPALKKVNGSASHSGLGTPFTKDFATAAKDTVFQQAQNDERDRVYFDPAVSQAKADGLRALGQFAYYDAIVMHGPGNDPTSFGGIRKTAMKKARTPAQGGDETTYLNAFLDARKAAMLTEAAHDDTSRVDTEQRVFLKAGNLDLNPPLKWKTYGDPYVINS [W141F] | 7.91 kJ/mol |

Same assay, conditions: Streptomyces sp. (strain N174); pH 7; Thermal; CD; sodium phosphate 50 mM; transition: 3; reversible: yes(79%); structure 1CHK; whole UniProt chain shown

| Variant | change of melting temperature, mutant - wild type (higher = more stable) | unfolding enthalpy (van 't Hoff) |
| --- | --- | --- |
| MHSQHRTARIALAVVLTAIPASLATAGVGYASTQASTAVKAGAGLDDPHKKEIAMELVSSAENSSLDWKAQYKYIEDIGDGRGYTGGIIGFCSGTGDMLELVQHYTDLEPGNILAKYLPALKKVNGSASHSGLGTPFTKDFATAAKDTVFQQAQNDERDRVYFDPAVSQAKADGLRALGQFAYYDAIVMHGPGNDPTSFGGIRKTAMKKARTPAQGGDETTYLNAFLDARKAAMLTEAAHDDTSRVDTEQRVFLKAGNLDLNPPLKWKTYGDPYVINS [W141F] | -7.1 °C and -7.5 °C | 711 kJ/mol and 335 kJ/mol |

Same assay, conditions: Streptomyces sp. (strain N174); pH 7; 42.7 °C; Thermal; CD; sodium phosphate 50 mM; transition: 3; reversible: yes(68%); structure 1CHK; whole UniProt chain shown

| Variant | ddG of mutation (higher = less stable) |
| --- | --- |
| MHSQHRTARIALAVVLTAIPASLATAGVGYASTQASTAVKAGAGLDDPHKKEIAMELVSSAENSSLDFKAQYKYIEDIGDGRGYTGGIIGFCSGTGDMLELVQHYTDLEPGNILAKYLPALKKVNGSASHSGLGTPFTKDFATAAKDTVFQQAQNDERDRVYFDPAVSQAKADGLRALGQFAYYDAIVMHGPGNDPTSFGGIRKTAMKKARTPAQGGDETTYLNAFLDARKAAMLTEAAHDDTSRVDTEQRVFLKAGNLDLNPPLKWKTYGDPYVINS [W68F W141F] | 24.3 kJ/mol |

Same assay, conditions: Streptomyces sp. (strain N174); pH 7; 43.2 °C; Thermal; Fluorescence; sodium phosphate 50 mM; reversible: yes(80%); structure 1CHK; whole UniProt chain shown

| Variant | ddG of mutation (higher = less stable) |
| --- | --- |
| MHSQHRTARIALAVVLTAIPASLATAGVGYASTQASTAVKAGAGLDDPHKKEIAMELVSSAENSSLDFKAQYKYIEDIGDGRGYTGGIIGFCSGTGDMLELVQHYTDLEPGNILAKYLPALKKVNGSASHSGLGTPFTKDFATAAKDTVFQQAQNDERDRVYFDPAVSQAKADGLRALGQFAYYDAIVMHGPGNDPTSFGGIRKTAMKKARTPAQGGDETTYLNAFLDARKAAMLTEAAHDDTSRVDTEQRVFLKAGNLDLNPPLKWKTYGDPYVINS [W68F W141F] | 33.6 kJ/mol |

Same assay, conditions: Streptomyces sp. (strain N174); pH 7; 52.2 °C; Thermal; CD; sodium phosphate 50 mM; transition: 3; reversible: yes(68%); structure 1CHK; whole UniProt chain shown

| Variant | ddG of mutation (higher = less stable) |
| --- | --- |
| MHSQHRTARIALAVVLTAIPASLATAGVGYASTQASTAVKAGAGLDDPHKKEIAMELVSSAENSSLDFKAQYKYIEDIGDGRGYTGGIIGFCSGTGDMLELVQHYTDLEPGNILAKYLPALKKVNGSASHSGLGTPFTKDFATAAKDTVFQQAQNDERDRVYFDPAVSQAKADGLRALGQFAYYDAIVMHGPGNDPTSFGGIRKTAMKKARTPAQGGDETTYLNAFLDARKAAMLTEAAHDDTSRVDTEQRVFLKAGNLDLNPPLKWKTYGDPYVINS [W68F W141F] | 6.32 kJ/mol |

Same assay, conditions: Streptomyces sp. (strain N174); pH 7; Thermal; CD; sodium phosphate 50 mM; transition: 3; reversible: yes(68%); structure 1CHK; whole UniProt chain shown

| Variant | change of melting temperature, mutant - wild type (higher = more stable) | unfolding enthalpy (van 't Hoff) |
| --- | --- | --- |
| MHSQHRTARIALAVVLTAIPASLATAGVGYASTQASTAVKAGAGLDDPHKKEIAMELVSSAENSSLDFKAQYKYIEDIGDGRGYTGGIIGFCSGTGDMLELVQHYTDLEPGNILAKYLPALKKVNGSASHSGLGTPFTKDFATAAKDTVFQQAQNDERDRVYFDPAVSQAKADGLRALGQFAYYDAIVMHGPGNDPTSFGGIRKTAMKKARTPAQGGDETTYLNAFLDARKAAMLTEAAHDDTSRVDTEQRVFLKAGNLDLNPPLKWKTYGDPYVINS [W68F W141F] | -11.4 °C and -8 °C | 649 kJ/mol and 251 kJ/mol |

Same assay, conditions: Streptomyces sp. (strain N174); pH 7; Thermal; Fluorescence; sodium phosphate 50 mM; reversible: yes(80%); structure 1CHK; whole UniProt chain shown

| Variant | Tm | change of melting temperature, mutant - wild type (higher = more stable) | unfolding enthalpy (van 't Hoff) |
| --- | --- | --- | --- |
| MHSQHRTARIALAVVLTAIPASLATAGVGYASTQASTAVKAGAGLDDPHKKEIAMELVSSAENSSLDFKAQYKYIEDIGDGRGYTGGIIGFCSGTGDMLELVQHYTDLEPGNILAKYLPALKKVNGSASHSGLGTPFTKDFATAAKDTVFQQAQNDERDRVYFDPAVSQAKADGLRALGQFAYYDAIVMHGPGNDPTSFGGIRKTAMKKARTPAQGGDETTYLNAFLDARKAAMLTEAAHDDTSRVDTEQRVFLKAGNLDLNPPLKWKTYGDPYVINS [W68F W141F] | 31.2 °C | -12 °C | 852 kJ/mol |
